The values below come from paper doi:10.1101/2022.04.04.486996 (bioRxiv, 2022).

Data set [1] deals with the molecule itself. Nature of the data set: crystal structure.
Data set [2] concerns the target T1, E. coli ketosynthase FabF (E. coli, UniProt P0AAI5 1-413).
T1 sequence: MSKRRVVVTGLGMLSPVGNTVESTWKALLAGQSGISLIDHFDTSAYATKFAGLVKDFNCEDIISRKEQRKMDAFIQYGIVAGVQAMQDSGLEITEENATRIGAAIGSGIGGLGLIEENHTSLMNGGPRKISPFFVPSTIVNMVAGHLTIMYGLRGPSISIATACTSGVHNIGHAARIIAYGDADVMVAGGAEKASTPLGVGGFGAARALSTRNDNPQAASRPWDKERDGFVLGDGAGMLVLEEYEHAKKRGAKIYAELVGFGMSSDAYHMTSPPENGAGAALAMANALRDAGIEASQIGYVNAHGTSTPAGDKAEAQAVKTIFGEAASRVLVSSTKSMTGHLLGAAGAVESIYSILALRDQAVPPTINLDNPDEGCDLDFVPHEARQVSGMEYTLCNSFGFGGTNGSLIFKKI
Nature of the data set: cross-linking.

B1: E. coli ketosynthase FabB (enzyme)
chain: MKRAVITGLGIVSSIGNNQQEVLASLREGRSGITFSQELKDSGMRSHVWGNVKLDTTGLIDRKVVRFMSDASIYAFLSMEQAIADAGLSPEAYQNNPRVGLIAGSGGGSPRFQVFGADAMRGPRGLKAVGPYVVTKAMASGVSACLATPFKIHGVNYSISSACATSAHCIGNAVEQIQLGKQDIVFAGGGEELCWEMACEFDAMGALSTKYNDTPEKASRTYDAHRDGFVIAGGGGMVVVEELEHALARGAHIYAEIVGYGATSDGADMVAPSGEGAVRCMKMAMHGVDTPIDYLNSHGTSTPVGDVKELAAIREVFGDKSPAISATKAMTGHSLGAAGVQEAIYSLLMLEHGFIAPSINIEELDEQAAGLNIVTETTDRELTTVMSNSFGFGGTNATLVMRKLKD
As to B1, the stoichiometry N (in general, the number of molecules, sites or subunits per partner or assembly) in data set [1] turned out to be 2.

B2: ACP loaded with the (Z)-C14Cl chloroacrylate crosslinking probe (crypto-ACP) (natural protein, E. coli)
chain: STIEERVKKIIGEQLGVKQEEVTNNASFVEDLGADSLDTVELVMALEEEFDTEIPDEEAEKITTVQAAIDYINGHQA
modifications: S36 carries the 4'-phosphopantetheine analogue with the (Z)-C14Cl (C14-chloroacrylate) crosslinking probe
B2: the binding result in data set [2] was “binds”.
